Measured values as given in the supplement of paper PMC5998384.

Legend:
HeLa Kyoto [1] = experiment: solubility in G1/S (NP-40 vs SDS abundance) (log2 ratio); higher = more soluble; conditions: cell cycle stage: G1/S
HeLa Kyoto [2] = experiment: melting temperature (median over replicates), in situ; higher = more thermally stable
HeLa Kyoto [3] = experiment: solubility change mitosis vs G1/S (difference of NP-40 vs SDS log2 ratios) (log2 ratio difference); higher = more soluble in mitosis
HeLa Kyoto [4] = experiment: thermal stability score vs G1/S (z-score of summed log2 fold changes over temperatures); higher = more thermally stable than in G1/S
[5] = cell cycle stage: early G1 (4.5 h after nocodazole release)
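For melting temperature (median over replicates), in situ in this document: HeLa Kyoto cells synchronized by double thymidine or nocodazole block, proteins quantified by TMT10plex mass spectrometry, three independent biological replicates.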
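For solubility change mitosis vs G1/S (difference of NP-40 vs SDS log2 ratios) in this document: synchronized HeLa Kyoto cells (double thymidine block for G1/S, nocodazole release for mitosis), protein amounts in NP-40 versus SDS lysates quantified by mass spectrometry, three biological replicates.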
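For solubility in G1/S (NP-40 vs SDS abundance) in this document: HeLa Kyoto cells arrested at G1/S by double thymidine block, proteins quantified by TMT10plex mass spectrometry in mild NP-40 versus SDS extracts, three biological replicates.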
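For thermal stability score vs G1/S (z-score of summed log2 fold changes over temperatures) in this document: synchronized HeLa Kyoto cells, proteins quantified by TMT10plex mass spectrometry, three biological replicates, mitosis taken 0.5 h after nocodazole release, G1/S directly after double thymidine block.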

Sequence	solubility in G1/S (log2) (HeLa Kyoto [1])	melting temperature (HeLa Kyoto [2]; cell cycle stage: G1/S)	melting temperature (HeLa Kyoto [2]; cell cycle stage: mitosis)	solubility change mitosis (log2) (HeLa Kyoto [3])	thermal stability score (HeLa Kyoto [4]; [5])	thermal stability score (HeLa Kyoto [4]; cell cycle stage: mitosis)
MERPPGLRPGAGGPWEMRERLGTGGFGNVCLYQHRELDLKIAIKSCRLELSTKNRERWCHEIQIMKKLNHANVVKACDVPEELNILIHDVPLLAMEYCSGGDLRKLLNKPENCCGLKESQILSLLSDIGSGIRYLHENKIIHRDLKPENIVLQDVGGKIIHKIIDLGYAKDVDQGSLCTSFVGTLQYLAPELFENKPYTATVDYWSFGTMVFECIAGYRPFLHHLQPFTWHEKIKKKDPKCIFACEEMSGEVRFSSHLPQPNSLCSLVVEPMENWLQLMLNWDPQQRGGPVDLTLKQPRCFVLMDHILNLKIVHILNMTSAKIISFLLPPDESLHSLQSRIERETGINTGSQELLSETGISLDPRKPASQCVLDGVRGCDSYMVYLFDKSKTVYEGPFASRSLSDCVNYIVQDSKIQLPIIQLRKVWAEAVHYVSGLKEDYSRLFQGQRAAMLSLLRYNANLTKMKNTLISASQQLKAKLEFFHKSIQLDLERYSEQMTYGISSEKMLKAWKEMEEKAIHYAEVGVIGYLEDQIMSLHAEIMELQKSPYGRRQGDLMESLEQRAIDLYKQLKHRPSDHSYSDSTEMVKIIVHTVQSQDRVLKELFGHLSKLLGCKQKIIDLLPKVEVALSNIKEADNTVMFMQGKRQKEIWHLLKIACTQSSARSLVGSSLEGAVTPQTSAWLPPTSAEHDHSLSCVVTPQDGETSAQMIEENLNCLGHLSTIIHEANEEQGNSMMNLDWSWLTE [CHUK]	0.0423	48.7 °C	49.1 °C	-0.139	0.418	1.15
MERQKRKADIEKGLQFIQSTLPLKQEEYEAFLLKLVQNLFAEGNDLFREKDYKQALVQYMEGLNVADYAASDQVALPRELLCKLHVNRAACYFTMGLYEKALEDSEKALGLDSESIRALFRKARALNELGRHKEAYECSSRCSLALPHDESVTQLGQELAQKLGLRVRKAYKRPQELETFSLLSNGTAAGVADQGTSNGLGSIDDIETDCYVDPRGSPALLPSTPTMPLFPHVLDLLAPLDSSRTLPSTDSLDDFSDGDVFGPELDTLLDSLSLVQGGLSGSGVPSELPQLIPVFPGGTPLLPPVVGGSIPVSSPLPPASFGLVMDPSKKLAASVLDALDPPGPTLDPLDLLPYSETRLDALDSFGSTRGSLDKPDSFMEETNSQDHRPPSGAQKPAPSPEPCMPNTALLIKNPLAATHEFKQACQLCYPKTGPRAGDYTYREGLEHKCKRDILLGRLRSSEDQTWKRIRPRPTKTSFVGSYYLCKDMINKQDCKYGDNCTFAYHQEEIDVWTEERKGTLNRDLLFDPLGGVKRGSLTIAKLLKEHQGIFTFLCEICFDSKPRIISKGTKDSPSVCSNLAAKHSFYNNKCLVHIVRSTSLKYSKIRQFQEHFQFDVCRHEVRYGCLREDSCHFAHSFIELKVWLLQQYSGMTHEDIVQESKKYWQQMEAHAGKASSSMGAPRTHGPSTFDLQMKFVCGQCWRNGQVVEPDKDLKYCSAKARHCWTKERRVLLVMSKAKRKWVSVRPLPSIRNFPQQYDLCIHAQNGRKCQYVGNCSFAHSPEERDMWTFMKENKILDMQQTYDMWLKKHNPGKPGEGTPISSREGEKQIQMPTDYADIMMGYHCWLCGKNSNSKKQWQQHIQSEKHKEKVFTSDSDASGWAFRFPMGEFRLCDRLQKGKACPDGDKCRCAHGQEELNEWLDRREVLKQKLAKARKDMLLCPRDDDFGKYNFLLQEDGDLAGATPEAPAAAATATTGE [ZC3H7B]	-0.354	48 °C	47.6 °C	0.118	1.16	1.26
MERREEQPGAAGAGAAPALDFTVENVEKALHQLYYDPNIENKNLAQKWLMQAQVSPQAWHFSWQLLQPDKVPEIQYFGASALHIKISRYWSDIPTDQYESLKAQLFTQITRFASGSKIVLTRLCVALASLALSMMPDAWPCAVADMVRLFQAEDSPVDGQGRCLALLELLTVLPEEFQTSRLPQYRKGLVRTSLAVECGAVFPLLEQLLQQPSSPSCVRQKVLKCFSSWVQLEVPLQDCEALIQAAFAALQDSELFDSSVEAIVNAISQPDAQRYVNTLLKLIPLVLGLQEQLRQAVQNGDMETSHGICRIAVALGENHSRALLDQVEHWQSFLALVNMIMFCTGIPGHYPVNETTSSLTLTFWYTLQDDILSFEAEKQAVYQQVYRPVYFQLVDVLLHKAQFPSDEEYGFWSSDEKEQFRIYRVDISDTLMYVYEMLGAELLSNLYDKLGRLLTSSEEPYSWQHTEALLYGFQSIAETIDVNYSDVVPGLIGLIPRISISNVQLADTVMFTIGALSEWLADHPVMINSVLPLVLHALGNPELSVSSVSTLKKICRECKYDLPPYAANIVAVSQDVLMKQIHKTSQCMWLMQALGFLLSALQVEEILKNLHSLISPYIQQLEKLAEEIPNPSNKLAIVHILGLLSNLFTTLDISHHEDDHEGPELRKLPVPQGPNPVVVVLQQVFQLIQKVLSKWLNDAQVVEAVCAIFEKSVKTLLDDFAPMVPQLCEMLGRMYSTIPQASALDLTRQLVHIFAHEPAHFPPIEALFLLVTSVTLTLFQQGPRDHPDIVDSFMQLLAQALKRKPDLFLCERLDVKAVFQCAVLALKFPEAPTVKASCGFFTELLPRCGEVESVGKVVQEDGRMLLIAVLEAIGGQASRSLMDCFADILFALNKHCFSLLSMWIKEALQPPGFPSARLSPEQKDTFSQQILRERVNKRRVKEMVKEFTLLCRGLHGTDYTADY [IPO13]	-0.335	51.2 °C	51 °C	-0.175	-0.535	-0.562
MESAIAEGGASRFSASSGGGGSRGAPQHYPKTAGNSEFLGKTPGQNAQKWIPARSTRRDDNSAANNSANEKERHDAIFRKVRGILNKLTPEKFDKLCLELLNVGVESKLILKGVILLIVDKALEEPKYSSLYAQLCLRLAEDAPNFDGPAAEGQPGQKQSTTFRRLLISKLQDEFENRTRNVDVYDKRENPLLPEEEEQRAIAKIKMLGNIKFIGELGKLDLIHESILHKCIKTLLEKKKRVQLKDMGEDLECLCQIMRTVGPRLDHERAKSLMDQYFARMCSLMLSKELPARIRFLLQDTVELREHHWVPRKAFLDNGPKTINQIRQDAVKDLGVFIPAPMAQGMRSDFFLEGPFMPPRMKMDRDPLGGLADMFGQMPGSGIGTGPGVIQDRFSPTMGRHRSNQLFNGHGGHIMPPTQSQFGEMGGKFMKSQGLSQLYHNQSQGLLSQLQGQSKDMPPRFSKKGQLNADEISLRPAQSFLMNKNQVPKLQPQITMIPPSAQPPRTQTPPLGQTPQLGLKTNPPLIQEKPAKTSKKPPPSKEELLKLTETVVTEYLNSGNANEAVNGVREMRAPKHFLPEMLSKVIILSLDRSDEDKEKASSLISLLKQEGIATSDNFMQAFLNVLDQCPKLEVDIPLVKSYLAQFAARAIISELVSISELAQPLESGTHFPLFLLCLQQLAKLQDREWLTELFQQSKVNMQKMLPEIDQNKDRMLEILEGKGLSFLFPLLKLEKELLKQIKLDPSPQTIYKWIKDNISPKLHVDKGFVNILMTSFLQYISSEVNPPSDETDSSSAPSKEQLEQEKQLLLSFKPVMQKFLHDHVDLQVSALYALQVHCYNSNFPKGMLLRFFVHFYDMEIIEEEAFLAWKEDITQEFPGKGKALFQVNQWLTWLETAEEEESEEEAD [EIF4G2]	0.402	48.4 °C	48.3 °C	0.0198	1.01	3.88
MESEDLSGRELTIDSIMNKVRDIKNKFKNEDLTDELSLNKISADTTDNSGTVNQIMMMANNPEDWLSLLLKLEKNSVPLSDALLNKLIGRYSQAIEALPPDKYGQNESFARIQVRFAELKAIQEPDDARDYFQMARANCKKFAFVHISFAQFELSQGNVKKSKQLLQKAVERGAVPLEMLEIALRNLNLQKKQLLSEEEKKNLSASTVLTAQESFSGSLGHLQNRNNSCDSRGQTTKARFLYGENMPPQDAEIGYRNSLRQTNKTKQSCPFGRVPVNLLNSPDCDVKTDDSVVPCFMKRQTSRSECRDLVVPGSKPSGNDSCELRNLKSVQNSHFKEPLVSDEKSSELIITDSITLKNKTESSLLAKLEETKEYQEPEVPESNQKQWQSKRKSECINQNPAASSNHWQIPELARKVNTEQKHTTFEQPVFSVSKQSPPISTSKWFDPKSICKTPSSNTLDDYMSCFRTPVVKNDFPPACQLSTPYGQPACFQQQQHQILATPLQNLQVLASSSANECISVKGRIYSILKQIGSGGSSKVFQVLNEKKQIYAIKYVNLEEADNQTLDSYRNEIAYLNKLQQHSDKIIRLYDYEITDQYIYMVMECGNIDLNSWLKKKKSIDPWERKSYWKNMLEAVHTIHQHGIVHSDLKPANFLIVDGMLKLIDFGIANQMQPDTTSVVKDSQVGTVNYMPPEAIKDMSSSRENGKSKSKISPKSDVWSLGCILYYMTYGKTPFQQIINQISKLHAIIDPNHEIEFPDIPEKDLQDVLKCCLKRDPKQRISIPELLAHPYVQIQTHPVNQMAKGTTEEMKYVLGQLVGLNSPNSILKAAKTLYEHYSGGESHNSSSSKTFEKKRGKK	0.176	46.8 °C	48.1 °C	0.0511	0.873	3.46
